The text below walks through data of paper PMC4192059 (Molecular microbiology, 2014).

The target of test [1] is T1, EspG5 (M. tuberculosis), crystallization construct (M. tuberculosis H37Rv, UniProt O53943 1-300).
T1 sequence: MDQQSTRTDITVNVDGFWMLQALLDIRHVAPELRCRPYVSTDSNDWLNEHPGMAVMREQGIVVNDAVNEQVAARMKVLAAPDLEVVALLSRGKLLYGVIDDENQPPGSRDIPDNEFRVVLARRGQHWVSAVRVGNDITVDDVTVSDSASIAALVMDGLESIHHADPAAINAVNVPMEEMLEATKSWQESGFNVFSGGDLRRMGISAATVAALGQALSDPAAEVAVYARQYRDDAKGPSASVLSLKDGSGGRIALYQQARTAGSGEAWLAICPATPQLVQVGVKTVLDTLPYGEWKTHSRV
Briefly: crystal structure.

Test [2] has as its target T2, EspG5 (M. tuberculosis), from His6-SUMO3-EspG5, tag cleaved (M. tuberculosis, UniProt O53943 1-300).
T2 sequence: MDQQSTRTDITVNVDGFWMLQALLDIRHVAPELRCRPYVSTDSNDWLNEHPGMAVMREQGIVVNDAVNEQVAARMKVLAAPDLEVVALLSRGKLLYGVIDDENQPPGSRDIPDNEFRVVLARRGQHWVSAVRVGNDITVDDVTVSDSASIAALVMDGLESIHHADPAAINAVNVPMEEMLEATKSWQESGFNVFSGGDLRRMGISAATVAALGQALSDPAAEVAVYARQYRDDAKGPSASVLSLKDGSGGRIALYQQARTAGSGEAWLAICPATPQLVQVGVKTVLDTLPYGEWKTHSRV
The test can be described thus: ITC.

B1: PPE41 (M. tuberculosis), chain of the crystallized complex (natural protein)
chain: MHFEAYPPEVNSANIYAGPGPDSMLAAARAWRSLDVEMTAVQRSFNRTLLSLMDAWAGPVVMQLMEAAKPFVRWLTDLCVQLSEVERQIHEIVRAYEWAHHDMVPLAQIYNNRAERQILIDNNALGQFTAQIADLDQEYDDFWDEDGEVMRDYRLRVSDALSKLTPWKAPPPIAHSTVLVAPVSPSTASSRTDT
Regarding B1, in test [1], the binding result was “binds”.

B2: His6-PE25–PPE41 heterodimer (M. tuberculosis), wild type (complex)
chain 1: MSFVITNPEALTVAATEVRRIRDRAIQSDAQVAPMTTAVRPPAADLVSEKAATFLVEYARKYRQTIAAAAVVLEEFAHALTTGADKYATAEADNIKTFS
chain 2: MHFEAYPPEVNSANIYAGPGPDSMLAAARAWRSLDVEMTAVQRSFNRTLLSLMDAWAGPVVMQLMEAAKPFVRWLTDLCVQLSEVERQIHEIVRAYEWAHHDMVPLAQIYNNRAERQILIDNNALGQFTAQIADLDQEYDDFWDEDGEVMRDYRLRVSDALSKLTPWKAPPPIAHSTVLVAPVSPSTASSRTDT
Molecule B2 came in with a Kd in test [2] of 48.1 nM.
